Source: doi:10.1101/2024.01.05.574328

Molecular target: AcrIF25 (A. baumannii)
Assay: cross-linking

For AcrIF25 (natural protein), which stoichiometry N is on record?
The stoichiometry N was 2.
